Data as given in patent publication US20060280804A1 (CONSEJO SUPERIOR DE INVESTIGACIONES CIENTIFCAS, published 2006).

T1: angiotensin converting enzyme (ACE, EC 3.4.15.1, Sigma)
T1 sequence (P12822 whole entry, species assumed, looked up): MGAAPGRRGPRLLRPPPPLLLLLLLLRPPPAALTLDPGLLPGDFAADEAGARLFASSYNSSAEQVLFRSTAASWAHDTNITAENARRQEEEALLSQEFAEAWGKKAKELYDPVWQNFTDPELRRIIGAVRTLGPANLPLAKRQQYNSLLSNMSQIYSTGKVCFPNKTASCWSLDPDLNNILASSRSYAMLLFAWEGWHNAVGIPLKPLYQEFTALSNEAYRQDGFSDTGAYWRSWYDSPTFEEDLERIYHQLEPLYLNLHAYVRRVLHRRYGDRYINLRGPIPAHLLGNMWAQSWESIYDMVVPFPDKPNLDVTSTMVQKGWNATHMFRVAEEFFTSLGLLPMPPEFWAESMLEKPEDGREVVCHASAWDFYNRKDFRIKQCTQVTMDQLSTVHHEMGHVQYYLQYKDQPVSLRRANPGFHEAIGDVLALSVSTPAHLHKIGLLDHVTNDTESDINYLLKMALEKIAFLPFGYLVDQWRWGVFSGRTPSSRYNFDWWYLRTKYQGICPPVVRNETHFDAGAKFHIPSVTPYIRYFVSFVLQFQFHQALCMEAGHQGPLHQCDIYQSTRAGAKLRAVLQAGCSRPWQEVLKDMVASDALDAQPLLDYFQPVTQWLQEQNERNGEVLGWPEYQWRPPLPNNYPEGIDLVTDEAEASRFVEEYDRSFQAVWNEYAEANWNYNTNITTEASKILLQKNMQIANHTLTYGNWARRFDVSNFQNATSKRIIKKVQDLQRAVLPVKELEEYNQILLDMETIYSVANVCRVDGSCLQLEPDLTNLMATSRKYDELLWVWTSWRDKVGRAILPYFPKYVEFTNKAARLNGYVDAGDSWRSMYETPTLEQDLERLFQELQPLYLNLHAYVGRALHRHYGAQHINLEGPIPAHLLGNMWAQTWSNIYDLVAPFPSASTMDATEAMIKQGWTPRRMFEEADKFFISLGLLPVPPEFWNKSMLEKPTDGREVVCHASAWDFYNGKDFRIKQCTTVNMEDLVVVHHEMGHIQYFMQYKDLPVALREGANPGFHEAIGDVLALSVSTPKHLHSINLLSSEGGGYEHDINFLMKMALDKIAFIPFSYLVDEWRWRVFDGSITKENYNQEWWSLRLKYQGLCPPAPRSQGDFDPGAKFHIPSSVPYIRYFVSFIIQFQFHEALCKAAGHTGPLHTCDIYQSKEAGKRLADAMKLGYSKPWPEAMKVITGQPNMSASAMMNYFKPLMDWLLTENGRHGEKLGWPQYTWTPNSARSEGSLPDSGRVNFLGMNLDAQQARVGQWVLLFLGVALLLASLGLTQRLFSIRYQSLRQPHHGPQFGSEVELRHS


biological target: T1, angiotensin converting enzyme (ACE, EC …); experiment: cell-based or functional assay

| Binder | ACEI activity, IC50 [µM] |
| --- | --- |
| ESIINF [ESIINF, synthetic peptide, ovalbumin 256-261] | > 1000 |
| ELIN [ELIN, synthetic peptide, ovalbumin 144-147] | > 1000 |
| SALAM [SALAM (SEQ. ID. No 8), synthetic peptide, ovalbumin 36-40] | 229 |
| RDILNQ [RDILNQ (SEQ. ID. No 7), synthetic peptide, ovalbumin 84-89] | 436 |
| RADHPFL [RADHPFL (SEQ. ID. No 3), synthetic peptide, ovalbumin 359-365] | 6.2 |

Further lines, results first:

| ACEI activity, IC50 [µM] | Binder |
| --- | --- |
| > 1000 | YRGGLEPINF [YRGGLEPINF, synthetic peptide, ovalbumin 125-134] |
| 174 | YQIGL [YQIGL (SEQ. ID. No 1), synthetic peptide, ovalbumin 212-216] |
| > 1000 | VLLPDEVSGL [VLLPDEVSGL, synthetic peptide, ovalbumin 243-252] |
| 4.7 | YAEERYPIL [YAEERYPIL (SEQ. ID. No 6), synthetic peptide, ovalbumin 106-114] |
